In the experiment the target is T1, HA-Pop1p/His-Myc-Pop2p complexes (S. pombe, UniProt P87060 1-775; O14170 1-703).
T1 sequence 1: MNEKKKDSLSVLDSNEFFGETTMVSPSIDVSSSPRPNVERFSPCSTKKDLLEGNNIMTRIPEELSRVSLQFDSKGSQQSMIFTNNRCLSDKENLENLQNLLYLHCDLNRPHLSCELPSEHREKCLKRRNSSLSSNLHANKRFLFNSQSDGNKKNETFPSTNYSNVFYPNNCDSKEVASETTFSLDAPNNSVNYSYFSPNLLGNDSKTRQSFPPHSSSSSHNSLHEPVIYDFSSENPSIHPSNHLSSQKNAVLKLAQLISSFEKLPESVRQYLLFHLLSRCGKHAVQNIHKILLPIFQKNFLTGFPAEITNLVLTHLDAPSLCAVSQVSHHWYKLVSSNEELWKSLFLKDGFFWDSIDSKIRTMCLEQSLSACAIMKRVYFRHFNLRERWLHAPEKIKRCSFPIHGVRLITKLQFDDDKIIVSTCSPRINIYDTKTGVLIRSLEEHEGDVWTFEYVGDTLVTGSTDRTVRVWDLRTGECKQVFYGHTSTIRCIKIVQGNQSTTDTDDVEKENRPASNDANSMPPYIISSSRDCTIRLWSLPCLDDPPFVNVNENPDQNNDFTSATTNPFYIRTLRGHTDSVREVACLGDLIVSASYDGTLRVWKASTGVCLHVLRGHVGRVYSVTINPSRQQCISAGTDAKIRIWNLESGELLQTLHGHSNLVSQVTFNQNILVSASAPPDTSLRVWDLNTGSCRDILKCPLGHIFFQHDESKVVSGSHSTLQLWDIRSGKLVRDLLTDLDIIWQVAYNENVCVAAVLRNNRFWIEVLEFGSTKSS
T1 sequence 2: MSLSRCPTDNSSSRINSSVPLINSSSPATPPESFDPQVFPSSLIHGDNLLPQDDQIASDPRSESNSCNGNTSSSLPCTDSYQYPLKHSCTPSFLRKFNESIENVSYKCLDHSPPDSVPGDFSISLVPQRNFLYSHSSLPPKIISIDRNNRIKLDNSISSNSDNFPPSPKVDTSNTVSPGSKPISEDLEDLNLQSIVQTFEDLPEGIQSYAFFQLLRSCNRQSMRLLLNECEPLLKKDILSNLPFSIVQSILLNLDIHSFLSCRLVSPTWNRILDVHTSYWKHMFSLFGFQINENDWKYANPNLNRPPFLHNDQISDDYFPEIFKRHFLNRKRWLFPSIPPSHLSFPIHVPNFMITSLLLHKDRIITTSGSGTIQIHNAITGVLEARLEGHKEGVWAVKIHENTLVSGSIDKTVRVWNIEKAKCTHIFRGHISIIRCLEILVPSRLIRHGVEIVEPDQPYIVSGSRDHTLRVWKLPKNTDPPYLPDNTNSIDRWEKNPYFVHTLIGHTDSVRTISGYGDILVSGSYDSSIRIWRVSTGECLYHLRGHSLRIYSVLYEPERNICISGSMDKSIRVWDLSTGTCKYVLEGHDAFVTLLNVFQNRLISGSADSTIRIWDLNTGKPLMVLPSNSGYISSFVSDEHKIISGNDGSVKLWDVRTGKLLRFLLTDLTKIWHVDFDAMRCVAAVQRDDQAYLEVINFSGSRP
Nature of the experiment: pull-down.

B1: bacterially expressed, phosphorylated Rum1p (natural protein)
chain: MEPSTPPMRGLCTPSTPESPGSFKGVIDASLEGNSSIMIDEIPESDLPAPQVSTFPPTPAKTPKKQLLPNLMLQDRSNSLERCMEEDREHNPFLSSSDNQLLSRKKRKPTPPPSDGLYYVFRGKRIKKSFRPGTDLSTFKPKLLFADSAPSSSSDNPTSSVDLNDYSQIGILPPNLNSIGNKMFSLKSRVPSSSSGSFVAPPPQMRLPAYSSPQKSRSNTKDENRHNLLR
modifications: phosphorylated by Cdc2p/Cig1p complexes with radiolabeled ATP; residues not stated for this preparation
Regarding B1, the binding result was “binds”.

For the origin of these results see article PMC128837 (BMC Biochemistry, 2002).
